US20200338203A1 (Bicycle, published 2020)
Where two headings read alike, the source gives them in different places. One block for each binder: values may come before it. Numbered stars: 1 amine (or outer) side, 2 acyl side, 3 side chain; on linkers, the order of the positions; unused ones are H or OH. Bridge positions count the residues as written; N and C are the ends. Square brackets hold non-standard residues; d marks the D form. Ends that are not written are not given here. DM1 = thiol-containing maytansine derivative (cytotoxic agent); disulphide linker of formula (B) = not defined here; K(FI) = lysine carrying a fluorescein label (FI); 1Nal = N[C@@H](Cc1cccc2ccccc12)C(=O)O; TBMB = c1c(C[*:1])cc(C[*:3])cc1C[*:2]; Gly(cPent) = N[C@H](C(=O)O)C1CCCC1; hArg = N=C(N)NCCCC[C@H](N)C(=O)O; Tle = CC(C)(C)[C@H](N)C(=O)O; AF488 = AlexaFluor488 label; Aib = CC(C)(N)C(=O)O; βAla = NCCC(=O)O; Sar = CNCC(=O)O

Experiments:
Human EphA2 (Ecto) [1] = biological target: T1, Human EphA2 (Ecto) (Human, UniProt P29317 24-537); experiment: FP competition; competitor Compound 1
T1 construct: extracellular domain
Experimental: (§1) Peptides without a fluorescent tag were tested in competition with a peptide with a fluorescent tag and a known Kd (Table 2). Peptides were diluted to an appropriate concentration in assay buffer as described in the direct binding assay with a maximum of 5% DMSO, then serially diluted 1 in 2. Five μL of diluted peptide was added to the plate followed by 10 μL of human or mouse EphA2 (Table 1) at a fixed concentration which was dependent on the fluorescent peptide used (Table 2), then 10 μL fluorescent peptide added. Measurements were conducted as for the direct binding assay, however the gain was determined prior to the first measurement.

Human EphA2 (Ecto) [2] = biological target: T1, Human EphA2 (Ecto); experiment: FP direct binding
Experimental: (§2) The gain used for analysis was determined for each tracer at the end of the 60 minutes where there was no protein in the well. Data was analysed using Systat Sigmaplot version 12.0. mP values were fit to a user defined quadratic equation to generate a Kd value: f=ymin+(ymax−ymin)/Lig*((x+Lig+Kd)/2-sqrt((((x+Lig+Kd)/2)\hat{ }2)−(Lig*x))). “Lig” was a defined value of the concentration of tracer used.

Human EphA2 (Ecto) [3] = biological target: T1, Human EphA2 (Ecto); experiment: FP direct binding; remark: listed apart in the source
Mouse EphA2 (Ecto) [4] = biological target: T2, Mouse EphA2 (Ecto) (Mouse, UniProt Q03145 26-538); experiment: FP direct binding
T2 construct: extracellular domain; not shown: Fc fusion or C-terminal polyHis

[5] = biological target: Human & mouse EphA3 (Human & mouse) (UniProt P29320); experiment: FP direct binding, selectivity
dog EphA2 (Dog) = experiment: FP direct binding, selectivity
human EphA4 (Human) = human EphA4 (Human) (UniProt P54764); experiment: FP direct binding, selectivity
[6] = biological target: rat & mouse EphA4 (rat & mouse) (UniProt D3ZZK3); experiment: FP direct binding, selectivity
rat EphA3 (Rat) = rat EphA3 (Rat) (UniProt O08680); experiment: FP direct binding, selectivity
Human EphA1 = biological target: T3, Human EphA1 (Human, UniProt P21709 26-547); experiment: FP direct binding, selectivity
T3 construct: extracellular domain; also called EphA1 (Ecto), Human
T3 sequence (looked up): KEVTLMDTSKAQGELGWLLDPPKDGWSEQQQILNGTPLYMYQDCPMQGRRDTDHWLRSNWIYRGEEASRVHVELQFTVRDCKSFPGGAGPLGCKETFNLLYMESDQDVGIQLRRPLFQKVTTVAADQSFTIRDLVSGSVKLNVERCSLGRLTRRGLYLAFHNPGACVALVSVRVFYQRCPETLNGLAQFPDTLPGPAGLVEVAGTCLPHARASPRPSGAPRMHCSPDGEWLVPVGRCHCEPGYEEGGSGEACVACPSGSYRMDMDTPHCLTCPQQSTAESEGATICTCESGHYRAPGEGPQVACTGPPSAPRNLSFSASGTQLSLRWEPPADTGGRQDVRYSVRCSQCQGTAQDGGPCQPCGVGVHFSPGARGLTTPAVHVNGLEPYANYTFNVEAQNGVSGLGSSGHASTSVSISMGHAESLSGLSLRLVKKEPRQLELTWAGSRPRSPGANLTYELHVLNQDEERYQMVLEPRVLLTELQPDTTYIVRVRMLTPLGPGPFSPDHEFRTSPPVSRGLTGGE
Experimental: as §2

mouse EphA2 = biological target: T4, mouse EphA2 (Mouse, UniProt Q03145 26-538); experiment: FP direct binding, selectivity
T4 construct: extracellular domain; C-terminal polyHis; also called EphA2 (Ecto), Mouse
Experimental: as §2

rat EphA2 = rat EphA2 (Rat, UniProt D3ZBN3 27-205); experiment: FP direct binding, selectivity
Experimental: as §2

rat EphB1 = biological target: T5, rat EphB1 (Rat, UniProt P09759 18-540); experiment: FP direct binding, selectivity
T5 construct: extracellular domain; also called EphB1 (Ecto), Rat
T5 sequence (looked up): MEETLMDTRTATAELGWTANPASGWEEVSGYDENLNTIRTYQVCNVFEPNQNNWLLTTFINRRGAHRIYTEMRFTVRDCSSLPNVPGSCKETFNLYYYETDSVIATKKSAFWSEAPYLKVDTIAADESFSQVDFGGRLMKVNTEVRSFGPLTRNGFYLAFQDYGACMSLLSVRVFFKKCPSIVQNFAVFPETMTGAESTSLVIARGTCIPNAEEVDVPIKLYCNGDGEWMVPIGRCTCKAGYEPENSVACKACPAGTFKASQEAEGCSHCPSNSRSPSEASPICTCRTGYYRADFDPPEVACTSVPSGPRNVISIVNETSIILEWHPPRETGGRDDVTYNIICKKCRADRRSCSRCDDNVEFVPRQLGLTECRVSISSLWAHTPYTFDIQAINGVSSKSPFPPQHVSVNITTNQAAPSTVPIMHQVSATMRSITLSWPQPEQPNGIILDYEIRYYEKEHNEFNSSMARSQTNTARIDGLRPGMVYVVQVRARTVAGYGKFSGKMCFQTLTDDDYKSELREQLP
Experimental: as §2

Mouse EphA2 (Ecto) [7] = biological target: T2, Mouse EphA2 (Ecto); experiment: FP direct binding; remark: listed apart in the source
Experimental: as §2

Human EphA2 (Ecto) [8] = biological target: T1, Human EphA2 (Ecto); experiment: FP competition; competitor Compound 12
Experimental: as §1

Human EphA2 (Ecto) [9] = biological target: T1, Human EphA2 (Ecto); experiment: FP competition; competitor Compound 66
Experimental: as §1

Human EphA2 = biological target: T6, Human EphA2 (Human, UniProt P29317 24-537); experiment: FP competition; competitor: fluorescent Compound 12
T6 construct: extracellular domain; also called EphA2 (Ecto), Human
Experimental: as §1

T1 sequence (P29317 24-537): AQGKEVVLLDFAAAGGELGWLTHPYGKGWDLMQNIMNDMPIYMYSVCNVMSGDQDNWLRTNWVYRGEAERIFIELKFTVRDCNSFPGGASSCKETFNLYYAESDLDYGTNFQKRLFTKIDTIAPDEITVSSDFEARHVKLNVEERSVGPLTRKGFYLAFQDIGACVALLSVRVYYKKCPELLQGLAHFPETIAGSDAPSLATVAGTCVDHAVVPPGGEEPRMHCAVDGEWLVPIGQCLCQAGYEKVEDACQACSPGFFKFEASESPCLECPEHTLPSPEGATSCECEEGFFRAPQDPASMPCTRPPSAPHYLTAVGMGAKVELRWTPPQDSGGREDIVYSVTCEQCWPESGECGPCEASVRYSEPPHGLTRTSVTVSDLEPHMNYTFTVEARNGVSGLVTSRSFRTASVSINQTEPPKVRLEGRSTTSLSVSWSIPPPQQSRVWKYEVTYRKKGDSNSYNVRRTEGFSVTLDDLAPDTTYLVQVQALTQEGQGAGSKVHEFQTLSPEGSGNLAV
T2 sequence (Q03145 26-538): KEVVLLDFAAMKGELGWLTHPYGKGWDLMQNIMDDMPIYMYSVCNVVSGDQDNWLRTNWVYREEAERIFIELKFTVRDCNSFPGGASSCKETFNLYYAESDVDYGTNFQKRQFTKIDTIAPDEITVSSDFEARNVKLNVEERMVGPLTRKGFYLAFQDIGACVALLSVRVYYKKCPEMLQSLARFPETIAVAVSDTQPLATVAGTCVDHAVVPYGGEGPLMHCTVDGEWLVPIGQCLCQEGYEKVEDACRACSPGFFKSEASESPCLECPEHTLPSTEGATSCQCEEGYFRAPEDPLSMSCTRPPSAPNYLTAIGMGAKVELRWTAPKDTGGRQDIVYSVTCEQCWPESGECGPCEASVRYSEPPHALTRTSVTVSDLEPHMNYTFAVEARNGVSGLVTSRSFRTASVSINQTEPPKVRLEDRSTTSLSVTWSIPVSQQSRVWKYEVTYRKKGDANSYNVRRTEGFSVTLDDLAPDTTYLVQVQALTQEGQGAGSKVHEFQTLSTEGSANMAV
Chain of rat EphA3 (Rat) (O08680 21-541): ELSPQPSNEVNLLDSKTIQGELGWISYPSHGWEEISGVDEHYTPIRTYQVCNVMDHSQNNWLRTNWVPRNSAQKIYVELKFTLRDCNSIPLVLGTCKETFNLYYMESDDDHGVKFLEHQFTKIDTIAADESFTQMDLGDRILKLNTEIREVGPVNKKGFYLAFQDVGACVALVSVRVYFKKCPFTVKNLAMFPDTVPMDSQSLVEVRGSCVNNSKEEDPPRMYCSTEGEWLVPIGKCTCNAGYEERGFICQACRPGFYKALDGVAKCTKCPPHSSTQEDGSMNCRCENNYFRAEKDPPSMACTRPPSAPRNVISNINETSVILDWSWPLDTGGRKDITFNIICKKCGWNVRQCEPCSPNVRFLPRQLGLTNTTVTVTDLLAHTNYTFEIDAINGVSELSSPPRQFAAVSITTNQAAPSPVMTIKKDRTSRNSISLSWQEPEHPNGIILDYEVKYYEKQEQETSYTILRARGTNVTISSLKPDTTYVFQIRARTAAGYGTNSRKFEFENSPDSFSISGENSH
Chain of human EphA4 (Human) (P54764 20-547): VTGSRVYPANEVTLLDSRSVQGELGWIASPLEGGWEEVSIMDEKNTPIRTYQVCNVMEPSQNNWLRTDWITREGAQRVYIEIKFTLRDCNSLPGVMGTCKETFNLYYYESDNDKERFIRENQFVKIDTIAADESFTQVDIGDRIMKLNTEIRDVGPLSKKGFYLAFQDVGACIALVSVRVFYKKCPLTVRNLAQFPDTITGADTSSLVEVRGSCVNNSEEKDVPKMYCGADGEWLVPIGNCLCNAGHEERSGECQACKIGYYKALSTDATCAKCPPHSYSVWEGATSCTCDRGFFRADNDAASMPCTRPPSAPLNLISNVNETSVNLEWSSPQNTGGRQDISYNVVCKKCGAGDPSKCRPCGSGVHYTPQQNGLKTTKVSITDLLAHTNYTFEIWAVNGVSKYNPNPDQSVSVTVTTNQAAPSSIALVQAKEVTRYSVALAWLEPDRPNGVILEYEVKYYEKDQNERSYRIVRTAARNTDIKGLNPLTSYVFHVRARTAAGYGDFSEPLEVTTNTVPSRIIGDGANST
Chain of Human & mouse EphA3 (Human & mouse) (P29320 21-541): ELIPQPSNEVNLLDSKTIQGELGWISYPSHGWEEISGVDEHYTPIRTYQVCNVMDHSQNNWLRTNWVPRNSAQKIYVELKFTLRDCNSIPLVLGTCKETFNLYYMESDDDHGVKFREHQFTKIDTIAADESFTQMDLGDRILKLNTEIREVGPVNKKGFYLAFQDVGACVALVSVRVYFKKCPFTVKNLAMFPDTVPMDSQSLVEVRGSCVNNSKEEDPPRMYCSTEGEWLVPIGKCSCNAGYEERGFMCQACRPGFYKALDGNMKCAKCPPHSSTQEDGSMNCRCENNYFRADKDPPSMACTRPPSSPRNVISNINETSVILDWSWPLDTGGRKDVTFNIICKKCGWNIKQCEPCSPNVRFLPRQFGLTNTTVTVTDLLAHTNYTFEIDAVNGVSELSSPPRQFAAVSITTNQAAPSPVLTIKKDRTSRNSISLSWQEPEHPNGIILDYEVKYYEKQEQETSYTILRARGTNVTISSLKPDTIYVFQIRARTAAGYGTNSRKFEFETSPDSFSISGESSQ
T4 sequence (Q03145 26-538): as the sequence (Q03145 26-538) above
T6 sequence (P29317 24-537): as the sequence (P29317 24-537) above

Ki (Human EphA2 (Ecto) [1]): 0.0834 µM
Binder: ACRNIPTMCPFGPVWCA (linker 2-9-16 via TBMB) [Compound 32]

Kd (Human EphA2 (Ecto) [2]): 0.00425 µM
Binder: ACMNDWLCQLGWTCA[Sar][Sar][Sar][Sar][Sar][Sar]-{K(FI)} (linker 2-8-14 via TBMB) [Compound 6]

Ki (Human EphA2 (Ecto) [1]): 0.263 µM
Binder: ACPWGPAWCPVHGKTCA (linker 2-9-16 via TBMB) [Compound 41]

Kd (Human EphA2 (Ecto) [3]): 0.00217 µM
Kd (Mouse EphA2 (Ecto) [4]): 0.0038 µM
Kd [5]: 0.129 µM
Kd (dog EphA2 (Dog)): 0.00499 µM
Kd (human EphA4 (Human)): 1.5 µM
Kd [6]: 2.54 µM
Kd (rat EphA3 (Rat)): 0.297 µM
Kd (Human EphA1): 7.26 µM
Kd (mouse EphA2): 0.0038 µM
Kd (rat EphA2): 0.001 µM
Kd (rat EphB1): 5.42 µM
Binder: {AF488-βAla}-[Sar][Sar][Sar][Sar][Sar][Sar][Sar][Sar][Sar][Sar]H[dD]VPCP[1Nal]G[Aib]F[1Nal]CP[Tle]NR[Aib][dD]C (linker 15-22-29 via TBMB) [Compound 145]

Kd (Human EphA2 (Ecto) [3]): 0.00107 µM
Kd (Mouse EphA2 (Ecto) [4]): 0.00344 µM
Kd [5]: 0.0825 µM
Kd (dog EphA2 (Dog)): 0.00358 µM
Kd (human EphA4 (Human)): 7440 µM
Kd [6]: 1000 µM
Kd (rat EphA3 (Rat)): 0.221 µM
Kd (Human EphA1): 1.22 µM
Kd (mouse EphA2): 0.00344 µM
Kd (rat EphA2): 0.00115 µM
Binder: {AF488-βAla}-[Sar][Sar][Sar][Sar][Sar][Sar][Sar][Sar][Sar][Sar]H[dD][Gly(cPent)]PCP[1Nal]G[Aib]F[1Nal]CP[Tle]N[hArg]P[dD]C (linker 15-22-29 via TBMB) [Compound 147]

Kd (Human EphA2 (Ecto) [2]): 0.00031 µM
Kd (Mouse EphA2 (Ecto) [7]): 0.0008 µM
Binder: {AF488-βAla}-[Sar][Sar][Sar][Sar][Sar][Sar][Sar][Sar][Sar][Sar]H[dD]VPCPWGPFWCPVNRPGCA (linker 15-22-29 via TBMB) [Compound 139]

Ki (Human EphA2 (Ecto) [8]): 0.0992 µM
Ki (Human EphA2 (Ecto) [9]): 0.117 µM
Binder: ACPWGPAWCPVNRPGCAGAAA (linker 2-9-16 via TBMB) [Compound 45]

Ki (Human EphA2): > 1 µM
B1: BDC-5 (peptide)
peptide: {DM1-disulphide linker of formula (B)-βAla}-[Sar][Sar][Sar][Sar][Sar][Sar][Sar][Sar][Sar][Sar]ACPWAPFWCAVNRPGC
modifications: linker 12-19-26 via TBMB; reading uncertain
notes: DM1 conjugate; also called Bicyclic Peptide Drug Conjugate BDC-5; Compound 303, Formula (B)

Ki (Human EphA2 (Ecto) [1]): 0.144 µM
Ki (Human EphA2 (Ecto) [8]): 0.0922 µM
Ki (Human EphA2 (Ecto) [9]): 0.0825 µM
Binder: ACVPQGIWCALQFEPCA (linker 2-9-16 via TBMB) [Compound 63]

Ki (Human EphA2 (Ecto) [8]): 0.41 µM
Ki (Human EphA2 (Ecto) [9]): 0.0634 µM
Binder: ACTTGSIWCALQFEPCA (linker 2-9-16 via TBMB) [Compound 64]
